# According to PMC6299498 (BMC Veterinary Research, 2018):
# T1: SLA-2*HB01 heavy chain (swine leukocyte antigen 2, haplotype HB01 allele), extracellular domain (Sus scrofa)
# T1 construct: SLA-2 haplotype HB01 allele, swine MHC class I heavy chain, extracellular domain stated as 275 amino acids; also called heavy chain of SLA-2*HB01
# T1 MHC heavy: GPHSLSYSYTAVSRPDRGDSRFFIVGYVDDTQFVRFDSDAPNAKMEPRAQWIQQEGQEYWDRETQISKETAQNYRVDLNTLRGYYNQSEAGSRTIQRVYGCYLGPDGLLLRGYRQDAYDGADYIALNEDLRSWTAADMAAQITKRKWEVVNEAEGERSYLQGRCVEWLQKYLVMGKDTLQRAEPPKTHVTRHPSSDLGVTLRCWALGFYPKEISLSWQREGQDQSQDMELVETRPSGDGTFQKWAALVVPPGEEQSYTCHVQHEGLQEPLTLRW
# Biological target: T1, SLA-2*HB01 heavy chain (swine leukocyte …)
# Test: SEC
# Settings: both partners purified
binder,measurement,value
ALLRSATYY,binding result,binds
